Reference: patent US20240409645A1 (DUALYX, published 2024)

T1: human IL-2 receptor (IL-2Rα/IL-2Rβ/γc) (human, UniProt P01589 22-272; P14784 27-551; P31785 23-369)
T1 sequence 1: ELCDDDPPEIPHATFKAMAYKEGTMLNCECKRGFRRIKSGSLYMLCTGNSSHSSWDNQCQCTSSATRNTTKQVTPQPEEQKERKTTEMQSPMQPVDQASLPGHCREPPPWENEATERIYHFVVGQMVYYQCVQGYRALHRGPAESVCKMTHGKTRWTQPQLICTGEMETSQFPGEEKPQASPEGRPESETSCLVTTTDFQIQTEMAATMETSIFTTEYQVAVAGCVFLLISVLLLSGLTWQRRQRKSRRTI
T1 sequence 2: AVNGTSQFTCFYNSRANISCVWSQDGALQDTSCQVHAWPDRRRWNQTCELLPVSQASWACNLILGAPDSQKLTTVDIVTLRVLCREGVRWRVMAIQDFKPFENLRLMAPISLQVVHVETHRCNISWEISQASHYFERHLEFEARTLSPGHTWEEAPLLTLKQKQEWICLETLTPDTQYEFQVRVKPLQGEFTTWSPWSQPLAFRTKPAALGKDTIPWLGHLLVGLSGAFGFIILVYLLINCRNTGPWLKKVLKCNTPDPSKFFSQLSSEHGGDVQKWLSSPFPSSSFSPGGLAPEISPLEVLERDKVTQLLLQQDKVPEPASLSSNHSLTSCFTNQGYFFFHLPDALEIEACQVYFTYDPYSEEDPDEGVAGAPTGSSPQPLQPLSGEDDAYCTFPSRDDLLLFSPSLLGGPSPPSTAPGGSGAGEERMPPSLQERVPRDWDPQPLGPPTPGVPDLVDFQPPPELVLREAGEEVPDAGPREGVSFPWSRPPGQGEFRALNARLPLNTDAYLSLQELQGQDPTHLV
T1 sequence 3: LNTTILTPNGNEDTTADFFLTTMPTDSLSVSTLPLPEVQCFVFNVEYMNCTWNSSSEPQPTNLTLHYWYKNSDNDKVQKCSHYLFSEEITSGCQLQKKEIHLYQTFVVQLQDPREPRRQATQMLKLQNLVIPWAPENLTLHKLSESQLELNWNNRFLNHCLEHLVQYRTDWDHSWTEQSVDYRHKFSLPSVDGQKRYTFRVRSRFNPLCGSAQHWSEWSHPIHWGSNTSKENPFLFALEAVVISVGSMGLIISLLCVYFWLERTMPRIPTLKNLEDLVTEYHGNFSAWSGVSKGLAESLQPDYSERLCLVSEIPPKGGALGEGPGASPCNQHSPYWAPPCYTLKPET

B1: DC00067 (other)
chain 1: EVQLVESGGGLVQTGGSLRLSCAASGGTFSRDAMAWFRQVPGKEREFVALISWSGATTNYADSVKGRFAISRDNGKNTVYLQMNRLKPADTAIYYCAADRRPMGSRSYFEPTEYDDWGQGTQVTVSSGGGGSGGGGSGGGGSQVQLVESGGGLVQPGGSLRLSCATSGFTFRNNFMSWVRQAPGKGLEWVSTISYGGESTTYAESVKGRFTISRDNAKNTLYLQMNNLKPEDTAVYYCAKATSYDSIRSGSRGQGTQVTVSSDKTHTCPPCPAPEAAGGPSVFLFPPKPKDTLMISRTPEVTCVVVDVSHEDPEVKFNWYVDGVEVHNAKTKPREEQYNSTYRVVSVLTVLHQDWLNGKEYKCKVSNKALGAPIEKTISKAKGQPREPQVYTLPPSRDELTKNQVSLTCLVKGFYPSDIAVEWESNGQPENNYKTTPPVLDSDGSFLLYSKLTVDKSRWQQGNVFSCSVMHEALHNHYTQKSLSLSPGK
chain 2: QVQLVESGGGLVQAGGSLTLSCAAPGRTFGTDVVGWFRQAPGKEREFVASISRSGDGIYYDDSVKGRFTISRNNAWNTVNLQMNSLKVEDTAVYYCAAGDGWSTYDYWGQGTQVTVSSGGGGSGGGGSGGGGSEVQLVESGGGLVQTGGSLRLSCAASGGTFSRDAMAWFRQVPGKEREFVALISWSGATTNYADSVKGRFAISRDNGKNTVYLQMNRLKPADTAIYYCAADRRPMGSRSYFEPTEYDDWGQGTQVTVSSGGGGSGGGGSGGGGSQVQLVESGGGLVQPGGSLRLSCATSGFTFRNNFMSWVRQAPGKGLEWVSTISYGGESTTYAESVKGRFTISRDNAKNTLYLQMNNLKPEDTAVYYCAKATSYDSIRSGSRGQGTQVTVSSDKTHTCPPCPAPEAAGGPSVFLFPPKPKDTLMISRTPEVTCVVVDVSHEDPEVKFNWYVDGVEVHNAKTKPREEQYNSTYRVVSVLTVLHQDWLNGKEYKCKVSNKALGAPIEKTISKAKGQPREPQVYTLPPSRDELTKNQVSLTCLVKGFYPSDIAVEWESNGQPENNYKTTPPVLDSDGSFFLYSRLTVDKSRWQQGNVFSCSVMHEALHNHYTQKSLSLSPGK
B2: DC00069 (other)
chain 1: B1 chain 1
chain 2: QVQLVESGGGLVQPGGSLRLSCATSGFTFRNNFMSWVRQAPGKGLEWVSTISYGGESTTYAESVKGRFTISRDNAKNTLYLQMNNLKPEDTAVYYCAKATSYDSIRSGSRGQGTQVTVSSGGGGSGGGGSGGGGSQVQLVESGGGLVQAGGSLTLSCAAPGRTFGTDVVGWFRQAPGKEREFVASISRSGDGIYYDDSVKGRFTISRNNAWNTVNLQMNSLKVEDTAVYYCAAGDGWSTYDYWGQGTQVTVSSGGGGSGGGGSGGGGSDKTHTCPPCPAPEAAGGPSVFLFPPKPKDTLMISRTPEVTCVVVDVSHEDPEVKFNWYVDGVEVHNAKTKPREEQYNSTYRVVSVLTVLHQDWLNGKEYKCKVSNKALGAPIEKTISKAKGQPREPQVYTLPPSRDELTKNQVSLTCLVKGFYPSDIAVEWESNGQPENNYKTTPPVLDSDGSFFLYSRLTVDKSRWQQGNVFSCSVMHEALHNHYTQKSLSLSPGK
B3: DC00070 (other)
chain 1: B1 chain 1
chain 2: QVQLVESGGGLVQAGGSLTLSCAAPGRTFGTDVVGWFRQAPGKEREFVASISRSGDGIYYDDSVKGRFTISRNNAWNTVNLQMNSLKVEDTAVYYCAAGDGWSTYDYWGQGTQVTVSSGGGGSGGGGSGGGGSQVQLVESGGGLVQPGGSLRLSCATSGFTFRNNFMSWVRQAPGKGLEWVSTISYGGESTTYAESVKGRFTISRDNAKNTLYLQMNNLKPEDTAVYYCAKATSYDSIRSGSRGQGTQVTVSSDKTHTCPPCPAPEAAGGPSVFLFPPKPKDTLMISRTPEVTCVVVDVSHEDPEVKFNWYVDGVEVHNAKTKPREEQYNSTYRVVSVLTVLHQDWLNGKEYKCKVSNKALGAPIEKTISKAKGQPREPQVYTLPPSRDELTKNQVSLTCLVKGFYPSDIAVEWESNGQPENNYKTTPPVLDSDGSFFLYSRLTVDKSRWQQGNVFSCSVMHEALHNHYTQKSLSLSPGK
B4: DC00039 (other)
chain 1: QVQLVESGGGLVQPGGSLRLSCATSGFTFRNNFMSWVRQAPGKGLEWVSTISYGGESTTYAESVKGRFTISRDNAKNTLYLQMNNLKPEDTAVYYCAKATSYDSIRSGSRGQGTQVTVSSDKTHTCPPCPAPEAAGGPSVFLFPPKPKDTLMISRTPEVTCVVVDVSHEDPEVKFNWYVDGVEVHNAKTKPREEQYNSTYRVVSVLTVLHQDWLNGKEYKCKVSNKALGAPIEKTISKAKGQPREPQVYTLPPSRDELTKNQVSLTCLVKGFYPSDIAVEWESNGQPENNYKTTPPVLDSDGSFLLYSKLTVDKSRWQQGNVFSCSVMHEALHNHYTQKSLSLSPGK
chain 2: EVQLVESGGGLVQTGGSLRLSCAASGGTFSRDAMAWFRQVPGKEREFVALISWSGATTNYADSVKGRFAISRDNGKNTVYLQMNRLKPADTAIYYCAADRRPMGSRSYFEPTEYDDWGQGTQVTVSSGGGGSGGGGSGGGGSQVQLVESGGGLVQPGGSLRLSCATSGFTFRNNFMSWVRQAPGKGLEWVSTISYGGESTTYAESVKGRFTISRDNAKNTLYLQMNNLKPEDTAVYYCAKATSYDSIRSGSRGQGTQVTVSSGGGGSGGGGSGGGGSQVQLVESGGGLVQAGGSLTLSCAAPGRTFGTDVVGWFRQAPGKEREFVASISRSGDGIYYDDSVKGRFTISRNNAWNTVNLQMNSLKVEDTAVYYCAAGDGWSTYDYWGQGTQVTVSSGGGGSGGGGSGGGGSDKTHTCPPCPAPEAAGGPSVFLFPPKPKDTLMISRTPEVTCVVVDVSHEDPEVKFNWYVDGVEVHNAKTKPREEQYNSTYRVVSVLTVLHQDWLNGKEYKCKVSNKALGAPIEKTISKAKGQPREPQVYTLPPSRDELTKNQVSLTCLVKGFYPSDIAVEWESNGQPENNYKTTPPVLDSDGSFFLYSRLTVDKSRWQQGNVFSCSVMHEALHNHYTQKSLSLSPGK
B5: DC00041 (other)
chain 1: B4 chain 1
chain 2: QVQLVESGGGLVQPGGSLRLSCATSGFTFRNNFMSWVRQAPGKGLEWVSTISYGGESTTYAESVKGRFTISRDNAKNTLYLQMNNLKPEDTAVYYCAKATSYDSIRSGSRGQGTQVTVSSGGGGSGGGGSGGGGSQVQLVESGGGLVQAGGSLTLSCAAPGRTFGTDVVGWFRQAPGKEREFVASISRSGDGIYYDDSVKGRFTISRNNAWNTVNLQMNSLKVEDTAVYYCAAGDGWSTYDYWGQGTQVTVSSGGGGSGGGGSGGGGSEVQLVESGGGLVQTGGSLRLSCAASGGTFSRDAMAWFRQVPGKEREFVALISWSGATTNYADSVKGRFAISRDNGKNTVYLQMNRLKPADTAIYYCAADRRPMGSRSYFEPTEYDDWGQGTQVTVSSGGGGSGGGGSGGGGSDKTHTCPPCPAPEAAGGPSVFLFPPKPKDTLMISRTPEVTCVVVDVSHEDPEVKFNWYVDGVEVHNAKTKPREEQYNSTYRVVSVLTVLHQDWLNGKEYKCKVSNKALGAPIEKTISKAKGQPREPQVYTLPPSRDELTKNQVSLTCLVKGFYPSDIAVEWESNGQPENNYKTTPPVLDSDGSFFLYSRLTVDKSRWQQGNVFSCSVMHEALHNHYTQKSLSLSPGK
B6: DC00040 (other)
chain 1: B4 chain 1
chain 2: EVQLVESGGGLVQTGGSLRLSCAASGGTFSRDAMAWFRQVPGKEREFVALISWSGATTNYADSVKGRFAISRDNGKNTVYLQMNRLKPADTAIYYCAADRRPMGSRSYFEPTEYDDWGQGTQVTVSSGGGGSGGGGSGGGGSQVQLVESGGGLVQAGGSLTLSCAAPGRTFGTDVVGWFRQAPGKEREFVASISRSGDGIYYDDSVKGRFTISRNNAWNTVNLQMNSLKVEDTAVYYCAAGDGWSTYDYWGQGTQVTVSSGGGGSGGGGSGGGGSDKTHTCPPCPAPEAAGGPSVFLFPPKPKDTLMISRTPEVTCVVVDVSHEDPEVKFNWYVDGVEVHNAKTKPREEQYNSTYRVVSVLTVLHQDWLNGKEYKCKVSNKALGAPIEKTISKAKGQPREPQVYTLPPSRDELTKNQVSLTCLVKGFYPSDIAVEWESNGQPENNYKTTPPVLDSDGSFFLYSRLTVDKSRWQQGNVFSCSVMHEALHNHYTQKSLSLSPGK

Molecular target: T1, human IL-2 receptor (IL-2Rα/IL-2Rβ/γc)
Assay: cell-based or functional assay

| EC50 (nM) pSTAT5, NK, human PBMCs [nM] | EC50 (nM) pSTAT5, Treg, human PBMCs | Fold Max signal (% pSTAT5+) Treg/NK [fold] | Max signal (% pSTAT5+), NK [% pSTAT5+] | Max signal (% pSTAT5+), Treg [% pSTAT5+] | fold EC50 NK/Treg [fold] | Binder |
| --- | --- | --- | --- | --- | --- | --- |
| 0.217 | < 0.1 pM | 2 | 39 | 95 | > 2180 | B1 |
| 0.234 | 0.00119 nM | 7 | 12 | 87 | 197 | B2 |
| 0.0538 | 0.497 pM | 7 | 11 | 80 | 108 | B3 |
| 0.0315 | 0.761 pM | 11 | 4 | 46 | 41 | B4 |
| 0.15 | < 0.1 pM | 5 | 17 | 94 | > 1500 | B5 |
| 0.701 | 0.0158 nM | 10 | 4 | 43 | 44 | B6 |
